From the supplement of paper PMC7877785
± gives the uncertainty stated by the source.

Assay: self-splicing fitness, log relative to wild type (ln ratio); higher = more splicing; Tetrahymena group I intron in knt gene, E. coli kanamycin selection, DiMSum; sequences stand for … in CUCUCU…GGAGGGAAAAGUUAUCAGGCAUGCACCUGGUAGCUAGUCUUUAAACCAAUAGAUUGCAUCGGUUUAAAAGGCAAGACCGUCAAAUUGCGGGAAAGGGGUCAACAGCCGUUCAGUACCAAGUCUCAGGGGAAACUUUGAGAUGGCCUUGCAAAGGGUAUGGUAAUAAGCUGACGGACAUGGUCCUAACCACGCAGCCAAGUCCUAAGUCAACAGAUCUUCUGUUGAUAUGGAUGCAGUUCACAGACUAAAUGUCGGUCGGGGAAGAUGUAUUCUUCUCAUAAGAUAUAGUCGGACCUCUCCUUAAUGGGAGCUAGCGGAUGAAGUGAUGCAACACUGGAGCCGCUGGGAACUAAUUUGUAUGCGAAAGUAUAUUGAUUAGUUUUGGAGUACUCGUGGUCG
How it was run: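 A randomised library covering all eight P1ex-region intron nucleotides was built with the intron in the knt kanamycin-resistance gene on pET-22b(+) and held in E. coli BL21(DE3). Cells were grown overnight at 37°C or 30°C on LB agar, with or without 25 μg/mL kanamycin, plus 100 μg/mL carbenicillin, 50 μM IPTG and 0.2% rhamnose, and pooled colonies were amplicon-sequenced on an Illumina HiSeq 2500. DiMSum fitness is the error-weighted combination of wild-type-normalised replicate fold changes, kanamycin versus none.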

| Sequence | self-splicing fitness (ln) (30 °C) | self-splicing fitness (ln) (37 °C) |
| --- | --- | --- |
| GGAUAGCAAUAUUACGGAUG | -3.16 ± 0.33 | -0.578 ± 0.18 |
| GGAUAGCAAUAUUACGGCUA | -0.0854 ± 0.16 | -0.532 ± 0.14 |
| GGAUAGCAAUAUUACGGUAG |  | -3.74 ± 0.34 |
| GGAUAGCAAUAUUACGGUAU | -1.48 ± 0.084 | -0.924 ± 0.09 |
| GGAUAGCAAUAUUACGGUGA | -2.43 ± 0.1 | -1.14 ± 0.091 |
| GGAUAGCAAUAUUACGUCAC | -2.88 ± 0.27 | -2.05 ± 0.26 |
| GGAUAGCAAUAUUACGUGGU | -2.33 ± 0.14 | -2.09 ± 0.17 |
| GGAUAGCAAUAUUACGUUGA | -3.16 ± 0.24 | -1.25 ± 0.18 |
| GGCAAGCAAUAUUACGAAAU | -0.0122 ± 0.15 | -0.727 ± 0.12 |
| GGCAAGCAAUAUUACGAACC | -2.41 ± 0.36 | -0.982 ± 0.24 |
| GGCAAGCAAUAUUACGAACG | -0.449 ± 0.068 | -0.593 ± 0.061 |
| GGCAAGCAAUAUUACGACAU | -0.288 ± 0.012 | 0.141 ± 0.032 |
| GGCAAGCAAUAUUACGACUU | -0.555 ± 0.082 | 0.226 ± 0.083 |
| GGCAAGCAAUAUUACGAUCA | -0.849 ± 0.12 | -0.349 ± 0.098 |
| GGCAAGCAAUAUUACGAUCC | -1.31 ± 0.22 | -0.615 ± 0.27 |
| GGCAAGCAAUAUUACGAUCU | -0.22 ± 0.097 | -0.162 ± 0.13 |
| GGCAAGCAAUAUUACGCAAG | -4.16 ± 0.36 | -2.04 ± 0.23 |
| GGCAAGCAAUAUUACGCAUA | -0.239 ± 0.12 | 0.0644 ± 0.13 |
| GGCAAGCAAUAUUACGCCCG | -2.21 ± 0.45 |  |
| GGCAAGCAAUAUUACGCGAA | -0.953 ± 0.12 | 0.499 ± 0.13 |
| GGCAAGCAAUAUUACGCGGC | -3.13 ± 0.28 | -2.88 ± 0.41 |
| GGCAAGCAAUAUUACGCUAC | -3.33 ± 0.27 | -2.79 ± 0.23 |
| GGCAAGCAAUAUUACGCUCA | -1.21 ± 0.13 | 0.321 ± 0.17 |
| GGCAAGCAAUAUUACGCUUC | -1.44 ± 0.21 | -2.39 ± 0.42 |
| GGCAAGCAAUAUUACGGCUG | -1.68 ± 0.1 | -0.318 ± 0.16 |

| Sequence | self-splicing fitness (ln) (30 °C) | self-splicing fitness (ln) (37 °C) |
| --- | --- | --- |
| GGCAAGCAAUAUUACGGGCG | 0.0849 ± 0.086 | -0.132 ± 0.096 |
| GGCAAGCAAUAUUACGGGGG | -2.86 ± 0.16 | -2.54 ± 0.22 |
| GGCAAGCAAUAUUACGGUAG | -2.27 ± 0.11 | -2.2 ± 0.11 |
| GGCAAGCAAUAUUACGGUGA | -0.759 ± 0.071 | -0.336 ± 0.077 |
| GGCAAGCAAUAUUACGGUGG | -2.24 ± 0.11 | -1.81 ± 0.14 |
| GGCAAGCAAUAUUACGGUUC | -0.000497 ± 0.07 | -0.268 ± 0.1 |
| GGCAAGCAAUAUUACGUAGC | -2.4 ± 0.33 | -2.24 ± 0.32 |
| GGCAAGCAAUAUUACGUGCA | -0.303 ± 0.068 | -0.635 ± 0.074 |
| GGCAAGCAAUAUUACGUUAA | -1.09 ± 0.1 | -0.115 ± 0.1 |
| GGCAAGCAAUAUUACGUUAU | -0.941 ± 0.065 | -0.757 ± 0.071 |
| GGCAAGCAAUAUUACGUUGU | -3.52 ± 0.16 | -2.6 ± 0.21 |
| GGCCAGCAAUAUUACGAAAA | -2.32 ± 0.24 | -2.23 ± 0.46 |
| GGCCAGCAAUAUUACGAACA | -3.34 ± 0.28 | -2.03 ± 0.19 |
| GGCCAGCAAUAUUACGAGUU | -0.659 ± 0.1 | -1 ± 0.11 |
| GGCCAGCAAUAUUACGAUAA | -3.64 ± 0.4 | -1.09 ± 0.15 |
| GGCCAGCAAUAUUACGAUGG | -4.28 ± 0.33 | -2.67 ± 0.33 |
| GGCCAGCAAUAUUACGCACU | -0.947 ± 0.13 | 0.319 ± 0.16 |
| GGCCAGCAAUAUUACGCCCC | -1.65 ± 0.17 | -0.851 ± 0.26 |
| GGCCAGCAAUAUUACGCCGU | -2.39 ± 0.22 | -1.48 ± 0.19 |
| GGCCAGCAAUAUUACGCGGC | -3.46 ± 0.24 |  |
| GGCCAGCAAUAUUACGCGUC | -2.97 ± 0.12 | -1.75 ± 0.15 |
| GGCCAGCAAUAUUACGCUAU | -1.35 ± 0.054 | -1.02 ± 0.063 |
| GGCCAGCAAUAUUACGGACA | -0.666 ± 0.12 | -1.01 ± 0.17 |
| GGCCAGCAAUAUUACGGAGC | -2.25 ± 0.18 | -0.92 ± 0.21 |
| GGCCAGCAAUAUUACGGAUA | -1.41 ± 0.12 | -1.02 ± 0.14 |

| Sequence | self-splicing fitness (ln) (30 °C) | self-splicing fitness (ln) (37 °C) |
| --- | --- | --- |
| GGCCAGCAAUAUUACGGCCA | -2.42 ± 0.16 | -1.03 ± 0.17 |
| GGCCAGCAAUAUUACGGCGA | 0.0969 ± 0.095 | 0.581 ± 0.11 |
| GGCCAGCAAUAUUACGGGAA | -1.98 ± 0.11 | -0.198 ± 0.11 |
| GGCCAGCAAUAUUACGGGCU | -2.4 ± 0.2 | -3.16 ± 0.47 |
| GGCCAGCAAUAUUACGGGGA | -0.876 ± 0.068 | -0.469 ± 0.073 |
| GGCCAGCAAUAUUACGGUAA | -0.188 ± 0.053 | 0.0838 ± 0.061 |
| GGCCAGCAAUAUUACGUAAA | -1.26 ± 0.11 | -0.35 ± 0.14 |
| GGCCAGCAAUAUUACGUAGG | -2.19 ± 0.14 | -1.85 ± 0.18 |
| GGCCAGCAAUAUUACGUCGA | -2.72 ± 0.21 | -1.46 ± 0.2 |
| GGCCAGCAAUAUUACGUUCU | -0.00519 ± 0.082 | 0.108 ± 0.089 |
| GGCCAGCAAUAUUACGUUUG | -3.15 ± 0.14 | -2.4 ± 0.18 |
| GGCGAGCAAUAUUACGAAAA |  | -2.97 ± 0.47 |
| GGCGAGCAAUAUUACGACAU | -0.665 ± 0.015 | -0.155 ± 0.034 |
| GGCGAGCAAUAUUACGACUG | -0.978 ± 0.24 | -0.589 ± 0.29 |
| GGCGAGCAAUAUUACGAGCG | -0.88 ± 0.14 | -0.433 ± 0.17 |
| GGCGAGCAAUAUUACGAUCG | -2.53 ± 0.21 | -0.978 ± 0.21 |
| GGCGAGCAAUAUUACGCGCA | -0.241 ± 0.17 | 0.253 ± 0.22 |
| GGCGAGCAAUAUUACGCGUG | -1.15 ± 0.19 | -0.666 ± 0.2 |
| GGCGAGCAAUAUUACGCUGA | -1.82 ± 0.2 | -2.12 ± 0.18 |
| GGCGAGCAAUAUUACGGAGA |  | -1.69 ± 0.39 |
| GGCGAGCAAUAUUACGGGAC | -2.22 ± 0.2 | -1.1 ± 0.27 |
| GGCGAGCAAUAUUACGGGAU |  | -2.21 ± 0.47 |
| GGCGAGCAAUAUUACGUGAA | -2.49 ± 0.12 | -0.0823 ± 0.13 |
| GGCGAGCAAUAUUACGUGCG | -1.65 ± 0.11 | -0.955 ± 0.1 |
| GGCGAGCAAUAUUACGUUUA | -1.4 ± 0.087 | -0.372 ± 0.11 |

| Sequence | self-splicing fitness (ln) (30 °C) | self-splicing fitness (ln) (37 °C) |
| --- | --- | --- |
| GGCUAGCAAUAUUACGACCC | -1.79 ± 0.36 | -0.966 ± 0.37 |
| GGCUAGCAAUAUUACGACUC | 0.93 ± 0.14 | 0.604 ± 0.26 |
| GGCUAGCAAUAUUACGACUG | -1.54 ± 0.16 | -0.524 ± 0.22 |
| GGCUAGCAAUAUUACGAUUA | -0.803 ± 0.085 | -0.572 ± 0.079 |
| GGCUAGCAAUAUUACGCACC | -1.61 ± 0.24 | -1.78 ± 0.26 |
| GGCUAGCAAUAUUACGCAUA | 0.253 ± 0.13 | 0.0704 ± 0.15 |
| GGCUAGCAAUAUUACGCCAU | -2.23 ± 0.22 |  |
| GGCUAGCAAUAUUACGCGGU | -2.92 ± 0.38 | -3.63 ± 0.24 |
| GGCUAGCAAUAUUACGCUCG | -2.15 ± 0.24 | -0.647 ± 0.19 |
| GGCUAGCAAUAUUACGGAGU | -2.86 ± 0.1 | -2.02 ± 0.13 |
| GGCUAGCAAUAUUACGGCAU | -0.0766 ± 0.11 | 0.833 ± 0.13 |
| GGCUAGCAAUAUUACGGCCU | -3.3 ± 0.35 |  |
| GGCUAGCAAUAUUACGGUAA | -0.655 ± 0.15 | -0.0661 ± 0.14 |
| GGCUAGCAAUAUUACGGUUU | 0.173 ± 0.078 | 0.305 ± 0.09 |
| GGCUAGCAAUAUUACGUCAA | -1.34 ± 0.11 | -0.747 ± 0.12 |
| GGCUAGCAAUAUUACGUCCA | -1.3 ± 0.18 | -1.05 ± 0.2 |
| GGCUAGCAAUAUUACGUCCG | -2.88 ± 0.3 | -0.381 ± 0.17 |
| GGCUAGCAAUAUUACGUUUC | -0.818 ± 0.11 | -0.182 ± 0.12 |
| GGGAAGCAAUAUUACGAAUA |  | -1 ± 0.2 |
| GGGAAGCAAUAUUACGACUU | 0.323 ± 0.11 | -0.202 ± 0.15 |
| GGGAAGCAAUAUUACGAGAC | -1.98 ± 0.26 | -2.1 ± 0.34 |
| GGGAAGCAAUAUUACGAGCA | -2.18 ± 0.32 | -0.522 ± 0.18 |
| GGGAAGCAAUAUUACGAUCG | 0.00926 ± 0.13 | -0.00218 ± 0.13 |
